Where a chain is given by its changes, count along the chain named. Numbers in names are those of the source.

One test addresses T1, Rat PDGF-BB (rat, UniProt Q05028 74-182).
T1 construct: Homodimer of B chains
Put plainly: affinity KD as tabulated in Table 69; method not given.

Another test addresses T2, Cynomolgus monkey VEGF-A (cynomolgus monkey, UniProt P15692 207-395 (human entry)).
T2 construct: also called cyno VEGF
The description is as above.

Test [1] has as its target T3, Cynomolgus monkey PDGF-BB (cynomolgus monkey, UniProt P01127 82-190 (human entry), limits assumed).
T3 construct: Homodimer of B chains; also called cyno PDGF; cynoPDGF-BB
T3 chain: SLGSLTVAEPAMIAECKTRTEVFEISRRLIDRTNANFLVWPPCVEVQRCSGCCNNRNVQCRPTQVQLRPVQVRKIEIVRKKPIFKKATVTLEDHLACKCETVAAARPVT
The test is described as above.

The target in another test is T4, Rabbit PDGF-BB (rabbit, UniProt Q05028 74-182 (rat entry)).
T4 construct: also called rab PDGF
The description is as above.

The target in the next test is T5, Mouse PDGF-BB (mouse, UniProt P31240 82-190).
T5 construct: Homodimer of B chains; also called mo PDGF; mPDGF-BB
Described as above.

Test [2] addresses T6, Recombinant human FcγRIIa H131, 6xHis-tagged (human, UniProt P12318 36-218, limits assumed).
T6 construct: Captured through its 6xHis tag
T6 sequence: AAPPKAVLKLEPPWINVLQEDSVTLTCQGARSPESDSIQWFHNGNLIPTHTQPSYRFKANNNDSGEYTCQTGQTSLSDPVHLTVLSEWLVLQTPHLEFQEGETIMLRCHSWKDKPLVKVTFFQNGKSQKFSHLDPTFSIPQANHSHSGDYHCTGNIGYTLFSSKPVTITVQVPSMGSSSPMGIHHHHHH
Put plainly: Biacore SPR; His-tagged human FcγR captured on anti-6xHis antibody, DVD-Ig injected. As to the method: (§1) A CM5 chip (GE Healthcare, Pittsburgh, Pa.) with mouse anti-6×His antibodies (“6×His” disclosed as SEQ ID NO: 405) that were directly immobilized on the chip via amine coupling according to the GE Healthcare protocol to the density of 10000RU (all flow cells) was used for experiments. Human FcγRs were captured on flow cells 2, 3 and 4. Flow cell 1 was used as a reference surface. HBS-EP+ was used as the running buffer. […] The chip surfaces were regenerated with an injection of 10 mM glycine pH 1.5 at a flow rate of 100 μL/minute over all four flow cells after each cycle.
On the technique in general: In SPR one partner is held on a chip, and binding of the other changes the refractive index at the surface.

In test [3] the target is T7, Recombinant human FcγRIIa R131, 6xHis-tagged (human, UniProt P12318 36-218, limits assumed).
T7 construct: Captured through its 6xHis tag
T7 sequence: T6 sequence with H132R
The description is as above. As for the experimental part:
as §1

Test [4] concerns the target T8, Recombinant human FcγRIIIa F158, 6xHis-tagged (human, UniProt P08637 17-208, limits assumed).
T8 construct: Captured through its 6xHis tag
The test is described as above. As to the method:
as §1

Test [5] deals with T9, Recombinant human FcγRIIb, 6xHis-tagged (human, UniProt P31994 46-217, limits assumed).
T9 construct: Captured through its 6xHis tag; also called huFcRIIb
T9 sequence: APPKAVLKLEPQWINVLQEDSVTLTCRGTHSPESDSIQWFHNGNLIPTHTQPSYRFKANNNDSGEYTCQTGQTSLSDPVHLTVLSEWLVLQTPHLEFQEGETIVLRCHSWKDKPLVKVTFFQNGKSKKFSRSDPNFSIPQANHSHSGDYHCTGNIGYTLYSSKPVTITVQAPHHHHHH
Described as above. As to the method:
as §1

Test [6] addresses T10, Recombinant human FcγRIIIa V158, 6xHis-tagged (human, UniProt P08637 17-208, limits assumed).
T10 construct: Captured through its 6xHis tag; also called huFcRIIIa 158V
Put plainly: Biacore SPR; His-tagged huFcγRIIIa 158V captured on anti-6xHis antibody, DVD-Ig injected; steady state fit. As to the method: as §1
The binding of DVD-Ig molecules to FcRn from various species and the binding of DVD-Ig molecules to various FcγRs were characterized by Biacore using the method described in Example 1.2.

The target of another test is T11, Recombinant rat FcRn (rat, UniProt P13599 23-298, limits assumed).
T11 construct: FcRn is normally a heterodimer with beta-2-microglobulin
T11 sequence (looked up) 1: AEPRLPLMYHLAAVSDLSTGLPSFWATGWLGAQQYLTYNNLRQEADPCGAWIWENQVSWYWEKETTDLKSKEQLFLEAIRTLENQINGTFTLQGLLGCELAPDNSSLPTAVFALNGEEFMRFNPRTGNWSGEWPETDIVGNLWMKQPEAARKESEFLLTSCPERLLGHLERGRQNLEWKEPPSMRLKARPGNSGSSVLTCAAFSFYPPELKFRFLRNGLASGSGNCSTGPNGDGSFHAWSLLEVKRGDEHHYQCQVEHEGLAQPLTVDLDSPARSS
T11 sequence (looked up) 2: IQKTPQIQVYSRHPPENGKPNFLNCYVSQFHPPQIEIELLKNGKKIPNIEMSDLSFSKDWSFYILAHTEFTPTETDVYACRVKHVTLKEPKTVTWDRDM
The test is described as follows: Biacore SPR; DVD-Ig immobilised by amine coupling, recombinant FcRn injected; 1:1 binding fit. As for the experimental part:
Human, cynomolgus, mouse, rat and rabbit recombinant FcRns were injected over all the flow cells at a flow rate of 50 μL/minute for 1 minute at a concentrations range of from 2.7 to 6000 nM (three fold serial dilution), followed by a 2 minute dissociation time. The surfaces were regenerated with an injection of 10 mM HCl at 100 μL/minute for 2 seconds followed by an injection of HBS-EP+, pH 7.4, at a flow rate of 50 μL/minute for 30 seconds over all four flow cells. Samples were prepared and run in two running buffer systems, pH 6.0 MES-EP+, and pH […]. Recombinant human FcγRIIIa V158 and rat and mouse FcRn data were fitted to 1:1 kinetic model. Recombinant human FcγRIIa R131 and FcγRIIa H131, FcγRIIIa F158, and recombinant human, cynomolgus and rabbit FcRn binding data were fitted to a steady state affinity model. Biacore T200 Evaluation Software version 2.0 was used to fit all the data.

In test [7] the target is T12, recombinant human VEGF-R2-Fc (R&D Systems cat#357-KD) (human, UniProt P35968 20-764).
T12 construct: Bought reagent; also called hVEGFR2-Fc; hVEGF-R2 (KDR/Flk-1); not shown: Fc part of the bought fusion protein
Put plainly: competition ELISA: antibody on coated hVEGFR2-Fc against biotinylated hVEGF165 (Example 1.23). As to the method:
To identify molecules which could block the binding of VEGF-R2 (KDR/Flk-1) to hVEGF₁₆₅, a competition ELISA was performed. […] Plates were then washed four times with wash buffer (TBS, 0.05% Tween-20) and blocked with Superblock blocking buffer (Thermo Scientific, cat#37535). […] The samples were added to wells and incubated for 30 minutes at 25° C. with shaking. […] Following incubation, plates were washed four times with wash buffer. Streptavidin-polyHRP-40 (Fitzgerald cat#65r-s104phrp) was diluted in assay diluent (10% Superblock containing 0.05% surfactamps) and added to plates (50 μL) for 45 minutes at 25° C. with shaking. Plates were washed four times with wash buffer and developed with the addition of Enhanced K-blue TMB substrate (Neogen cat#308177). The reaction was stopped with 2N sulfuric acid (VWR, cat# BDH3500-1) and the absorbance was read at 450 nm-570 nm. A decrease in observed optical density indicates the test molecule is blocking the human VEGF-R2-Fc binding to hVEGF₁₆₅. Data was analyzed using Softmax Pro 4.8 software and IC₅₀ values calculated using a sigmoidal dose response (variable slope) fit in GraphPad Prism 5.
In general terms: ELISA stands for enzyme-linked immunosorbent assay.

The target of test [8] is T13, recombinant mouse VEGF-R2-Fc (R&D Systems cat#443-KD) (mouse, UniProt P35918 20-762).
T13 construct: Bought reagent; also called mVEGFR2-Fc; mVEGF-R2; not shown: Fc part of the bought fusion protein
The test is described as follows: competition ELISA: antibody on coated mVEGFR2-Fc against mVEGF164 (Example 1.25).

For test [9], the target named is T14, recombinant human PDGF-Rβ-Fc (R&D Systems #385-PR) (human, UniProt P09619 33-530).
T14 construct: Bought reagent; also called hPDGFRβ-Fc; huPDGF Rβ; not shown: Fc part of the bought fusion protein
The test is described as follows: direct ELISA on coated recombinant human PDGF-Rβ-Fc (Example 1.26). As to the method: Plates were then washed four times with wash buffer (TBS, 0.05% Tween-20) and blocked with Superblock blocking buffer (Thermo Scientific, cat#37535). During the blocking step, supernatants, antibodies and benchmark compounds were diluted in assay diluent (10% Superblock containing 0.05% surfactamps) and an eight point titration of each sample molecule was performed. […] Following incubation, plates were washed four times with wash buffer. […] Plates were washed four times with wash buffer and developed with the addition of Enhanced K-blue TMB substrate (Neogen, cat#308177). The reaction was stopped with 2N sulfuric acid (VWR, cat# BDH3500-1) and the absorbance was read at 450 nm-570 nm. […] Data was analyzed using Softmax Pro 4.8 software and IC₅₀ values calculated using a sigmoidal dose response (variable slope) fit in GraphPad Prism 5.

T5 sequence (P31240 82-190 limits assumed): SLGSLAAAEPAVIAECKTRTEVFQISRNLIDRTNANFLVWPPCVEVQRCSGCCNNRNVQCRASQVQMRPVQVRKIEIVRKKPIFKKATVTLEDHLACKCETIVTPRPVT
T13 sequence (P35918 20-762 limits assumed): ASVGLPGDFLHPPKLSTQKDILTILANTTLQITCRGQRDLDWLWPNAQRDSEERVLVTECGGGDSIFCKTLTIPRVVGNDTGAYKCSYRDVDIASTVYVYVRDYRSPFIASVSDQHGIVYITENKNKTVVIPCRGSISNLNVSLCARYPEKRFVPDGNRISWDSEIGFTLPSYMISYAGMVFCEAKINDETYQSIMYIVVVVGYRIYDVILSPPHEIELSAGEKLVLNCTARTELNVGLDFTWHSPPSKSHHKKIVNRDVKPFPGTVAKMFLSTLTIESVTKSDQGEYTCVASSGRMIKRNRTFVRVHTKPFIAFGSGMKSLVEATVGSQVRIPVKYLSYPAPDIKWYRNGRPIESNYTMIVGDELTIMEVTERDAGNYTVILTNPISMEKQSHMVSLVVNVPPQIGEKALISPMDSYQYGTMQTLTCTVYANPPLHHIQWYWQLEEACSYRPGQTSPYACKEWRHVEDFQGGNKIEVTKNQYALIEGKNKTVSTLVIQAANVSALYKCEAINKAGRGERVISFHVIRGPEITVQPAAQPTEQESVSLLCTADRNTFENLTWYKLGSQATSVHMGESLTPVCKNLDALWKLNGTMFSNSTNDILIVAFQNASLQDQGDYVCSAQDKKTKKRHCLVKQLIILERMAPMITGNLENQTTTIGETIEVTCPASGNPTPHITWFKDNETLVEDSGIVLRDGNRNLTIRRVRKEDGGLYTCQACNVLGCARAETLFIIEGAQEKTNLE
T1 sequence (Q05028 74-182 limits assumed): as the sequence (P31240 82-190 limits assumed) above, with I83V, I102V counted along it
T4 sequence (Q05028 74-182 limits assumed): as the sequence (P31240 82-190 limits assumed) above, with I83V, I102V counted along it
T12 sequence (P35968 20-764 limits assumed): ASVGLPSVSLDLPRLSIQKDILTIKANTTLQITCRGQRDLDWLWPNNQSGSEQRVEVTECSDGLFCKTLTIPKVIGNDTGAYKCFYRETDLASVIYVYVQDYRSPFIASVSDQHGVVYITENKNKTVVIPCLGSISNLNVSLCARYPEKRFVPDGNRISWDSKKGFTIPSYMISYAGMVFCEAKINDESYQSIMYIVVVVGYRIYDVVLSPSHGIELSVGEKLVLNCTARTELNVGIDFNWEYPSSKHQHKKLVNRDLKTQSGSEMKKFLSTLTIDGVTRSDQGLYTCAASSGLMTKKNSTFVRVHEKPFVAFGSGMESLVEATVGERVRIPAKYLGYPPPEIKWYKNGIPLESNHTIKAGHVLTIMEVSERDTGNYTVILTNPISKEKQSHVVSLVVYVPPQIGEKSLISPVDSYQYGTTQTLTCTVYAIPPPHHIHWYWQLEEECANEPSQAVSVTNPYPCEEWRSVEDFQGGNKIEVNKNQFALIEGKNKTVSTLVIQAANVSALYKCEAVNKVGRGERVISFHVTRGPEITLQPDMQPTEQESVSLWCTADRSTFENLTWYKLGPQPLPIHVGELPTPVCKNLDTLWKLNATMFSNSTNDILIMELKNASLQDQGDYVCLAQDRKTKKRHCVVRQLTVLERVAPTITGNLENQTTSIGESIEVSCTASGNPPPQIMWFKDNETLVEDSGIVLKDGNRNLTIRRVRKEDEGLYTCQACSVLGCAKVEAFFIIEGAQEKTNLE
T8 sequence (P08637 other isoform, or with tags, fused parts or gaps limits assumed): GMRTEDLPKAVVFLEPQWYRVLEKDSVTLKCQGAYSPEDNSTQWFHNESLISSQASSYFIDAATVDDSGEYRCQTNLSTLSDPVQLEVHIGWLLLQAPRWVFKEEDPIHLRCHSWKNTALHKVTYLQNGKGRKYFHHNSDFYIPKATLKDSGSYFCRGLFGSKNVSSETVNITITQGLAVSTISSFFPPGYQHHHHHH
T2 sequence (P15692 other isoform, or with tags, fused parts or gaps limits assumed): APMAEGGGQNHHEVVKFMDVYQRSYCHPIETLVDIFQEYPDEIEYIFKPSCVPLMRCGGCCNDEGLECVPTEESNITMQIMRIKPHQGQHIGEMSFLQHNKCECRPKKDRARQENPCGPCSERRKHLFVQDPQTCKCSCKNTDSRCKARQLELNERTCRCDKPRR
T14 sequence (P09619 33-530 limits assumed): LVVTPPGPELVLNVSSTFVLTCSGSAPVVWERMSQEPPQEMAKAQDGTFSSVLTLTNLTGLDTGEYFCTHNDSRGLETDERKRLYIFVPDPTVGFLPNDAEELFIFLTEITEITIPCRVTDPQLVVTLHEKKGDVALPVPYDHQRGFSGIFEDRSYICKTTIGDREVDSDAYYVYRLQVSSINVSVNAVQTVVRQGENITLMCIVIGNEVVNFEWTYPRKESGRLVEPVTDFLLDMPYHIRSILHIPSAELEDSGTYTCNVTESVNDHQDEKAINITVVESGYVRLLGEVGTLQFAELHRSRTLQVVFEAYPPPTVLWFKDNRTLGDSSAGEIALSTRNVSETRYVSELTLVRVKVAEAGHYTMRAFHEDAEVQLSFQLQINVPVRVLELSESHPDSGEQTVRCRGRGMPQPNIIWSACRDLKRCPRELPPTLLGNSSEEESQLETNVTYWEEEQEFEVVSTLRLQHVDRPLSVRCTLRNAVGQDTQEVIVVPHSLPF
T10 sequence (P08637 other isoform, or with tags, fused parts or gaps limits assumed): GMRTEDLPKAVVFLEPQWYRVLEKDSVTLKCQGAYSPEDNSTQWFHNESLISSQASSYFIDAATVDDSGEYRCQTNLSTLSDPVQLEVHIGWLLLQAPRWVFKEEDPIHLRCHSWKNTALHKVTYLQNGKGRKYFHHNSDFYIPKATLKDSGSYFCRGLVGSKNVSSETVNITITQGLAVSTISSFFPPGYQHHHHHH

B1: 9E10.1_GS_CL-33675 (PR-1610561), anti-VEGF-A/anti-PDGF-BB DVD-Ig, hu IgG1/k L234A L235A H435A (bispecific antibody)
heavy: EIQLVQSGSELKKPGASVKVSCKASGYTFTNYGMYWVKQAPGQGLEYMGWIDTETGRPTYADDFKGRFVFSLDTSVSTAYLQISSLKAEDTAVYFCARWSGDTTGIRGPWFAYWGQGTLVTVSSGGGGSGGGGSEVTLRESGPALVKPTQTLTLTCTFSGFSLSTYGMGVGWIRQPPGKALEWLANIWWDDDKYYNPSLKNRLTISKDTSKNQVVLTMTNMDPVDTATYYCARIESSGPKYSFDYWGQGTMVTVSSASTKGPSVFPLAPSSKSTSGGTAALGCLVKDYFPEPVTVSWNSGALTSGVHTFPAVLQSSGLYSLSSVVTVPSSSLGTQTYICNVNHKPSNTKVDKKVEPKSCDKTHTCPPCPAPEAAGGPSVFLFPPKPKDTLMISRTPEVTCVVVDVSHEDPEVKFNWYVDGVEVHNAKTKPREEQYNSTYRVVSVLTVLHQDWLNGKEYKCKVSNKALPAPIEKTISKAKGQPREPQVYTLPPSREEMTKNQVSLTCLVKGFYPSDIAVEWESNGQPENNYKTTPPVLDSDGSFFLYSKLTVDKSRWQQGNVFSCSVMHEALHNAYTQKSLSLSPGK
light: DIRMTQSPSSLSASVGDRVTIECLASEDIYSDLAWYQQKPGKSPKLLIYNANGLQNGVPSRFSGSGSGTDYSLTISSLQPEDVATYFCQQYNYFPGTFGQGTKLEIKGGSGGGGSGGEIVLTQSPGTLSLSPGERATLSCRASSGSIWYSFVSWYQQKPGQAPRLLIYADDQRASGIPDRFSGSGSGTDFTLTISRLEPEDFAVYYCQSYGINIDVVFGGGTKVEIKRTVAAPSVFIFPPSDEQLKSGTASVVCLLNNFYPREAKVQWKVDNALQSGNSQESVTEQDSKDSTYSLSSTLTLSKADYEKHKVYACEVTHQGLSSPVTKSFNRGEC
notes: also called 9E10.1-GS-33675; hu VEGF 9E10.1-GS-hu PDGF 33675 [hu IgG1/k]; LALA H435A
As usually defined, the Kd is a measure of binding affinity in units of concentration. For B1, the dissociation constant Kd with Rat PDGF-BB stood at 0.003 nM; in the test with Cynomolgus monkey VEGF-A, 0.065 nM; in test [1], 0.0008 nM; with Rabbit PDGF-BB, 0.003 nM; with Mouse PDGF-BB, 0.0003 nM; in test [6], 11000 nM. Besides, the binding result in test [2] was “no binding (tested: DVD-Ig 31.25 to 4000 nM)”; in test [3], “no binding (tested: DVD-Ig 31.25 to 4000 nM)”; in test [4] it was “no binding (tested: DVD-Ig 31.25 to 4000 nM)”; in test [5], “no binding (tested: DVD-Ig 31.25 to 4000 nM)”; with Recombinant rat FcRn it was “no binding (tested: FcRn 2.7 to 6000 nM)”.

B2: BCU-6B1-G6 (antibody, V domains shown)
VH: QIQLVQSGPELKKPGESVKISCKASGYTFTNYGMYWVKQAPGQALQFMGWINTETGQPTYADDFKGRFVFFLETSASTAYLQINNLKNEDMATYFCARLGNNYGIWFAYWGQGTLVTVSS
VL: DIQMTQSPASLSASLGETVTIECRASDDLYSTLAWYQQKPGDSPQLLIFDANRLAAGVPSRFSGSGSGTQYSLKINSLQSEDVASYFCQQYNKFPWTFGGGTKLELK
notes: Rat hybridoma anti-human VEGFR II monoclonal antibody, isotype IgG2a/κ
In general, IC50 refers to the concentration that gives 50% inhibition. Regarding B2, the figures for the IC50 in test [7] and in test [8] were 4.85 nM and 1.35 nM, respectively.

B3: BDE-8H6-F7 (antibody, V domains shown)
VH: EVQLVESGGGLVQPGSSLKLSCLASGFTFSNYNMYWIRQAPKKGLEWIALIFYDNNNKYYADSVKGRFTISRDNSKNTLYLEMNSLRSEDTAMYYCLRDSGPFSYWGQGTLVTVSS
VL: DIQMTQSPPSLSASLGDKVTINCQAGQNIKKYIAWYQQEPGKVPRLLIRYTSKLESDTPSRFSGSGSGRDYSFSISNVESEDIASYYCLQYDNLPWTFGGGTKLELK
notes: Rat hybridoma anti-human PDGFR-B monoclonal antibody
As to B3, the binding result in [9] is “binds”.

Source of the values: patent US20170015742A1 (published 2017).
